The results in this text go back to a protein production outcome set (Wang et al. 2014).

The data set can be described thus: label from the status in PepcDB records.
In the case of “MAEAVERTDELVREYLLFRGFTHTLRQLDAEIKADKEKGFRVDKIVDQLQQLMQVYDLAALRDYWSYLERRLFSRLEDIYRPTINKLKTSLFRFYLVYTIQTNRNDKAQEFFAKQATELQNQAEWKDWFVLPFLPSPDTNPTFATYFSRQWADTFIISLHNFLSVLFQCMPVPVILNFDAECQRTNQVQEENEVLRQKLFALQAEIHRLKKEEQQQEEEAAALVQHKLPPYVSSMDRLGDSELALVCSQRPASLSQSPRVGFLSSLLPQSKKSPSRLSPAQGPPQAQSSAKKDSFSSQATKGKDSVPGAKDGKSLLSGPVPGEASWTHQRQRRLQDHGKERRELLSTSSSQSQCAERKPEVSGAEAEPCLELHMGPVEVLARVSTAGSEGDRPEQPFIVLSQEEYGEHHSSIMHCRVDCSGRRVASLDVDGVIKVWSFNPIMQTKASSISKSPLLSLEWATKRDRLLLLGSGVGTVRLYDTEAKKNLCEININDDMPRILSLACSPNGASFVCSAAAPSLTSQTDSSAPDIGSKGMNQVPGKLLLWDTKTMKQQLQFSLDPEPIAINCTAFNHNGNLLVTGAADGVIRLFDMQQHECAMSWKAHCGEVYSVEFSCDENAVYSIGEDRKFIQWNIHKSGLKVSESNLPSDATGPFVLSGYSGYKQVQVPRGRLFAFDSEGNYMLTCSATGGLIYKLGSEEKVLENCLSLGGHRAPVVTVDWSTAMDCGTCLTASMDGKIKLTTLLAHKL”, the protein production result is given as “failed”.

For “MVQTIIDPVILPFNGDDTKSSLLTGGDPPSAAELAAKTVEDQLPREANPTAPAVAPLSLSLEDLKAILATVTKDLSQRLTAGSTS”, the protein production entry is “failed”.

Regarding “MSCGYTGPINEQNKENIKRAIAMHAAARRTRMLQQLREGLQLYRLVDIMEKNKEVCRSHFVFEGGNDQVDSQYIVSHLDPKMSESGTLKHSKEMQILNNFQDFLMELEDGGPEDEEALCVSKVMQWLSGQAHVHLLLSERQAFKITVLFDHTCMERMPDHRICYPVDSAWTQTITFPTAHSTSLNQFKENMRIAVQQGAYFYRV”, the protein production entry is given as “failed”.

As to “MATIYLVRHGQASFGKENYDQLSPRGWEQGRILGRWLAGKVEPGAVFGGNLQRHRETVEAITTGYGVSLPDMQVLEGLNEFDHLEVVERLRPEWADKQVMARDLASFPKPAKAFQQAFEKAVARWVSGDYDHEYTETWIDFRQRVGAALDELIELAGGADVIVSTSGGPIAVIAQHLLELSDRKALEMNNVIANTSVSRILYSGPRRSLAVFNNYSHLEAEDPALVTFR”, the protein production result is “failed”.

With “MPLDAPPLLPSADSDSTVSILQAKGDAPPAAATAAVGWPLLALTTWFGSGLIPLAPGTMGSIAALPFAWAIAWTWGPWALAPAAALVFVIGTLAAEAHVRRSGEKDPQRIVIDEVAGQWLTLAVAPLDPLAYGVGLVLFRICDITKPWPACWADRSVPGGFGIMLDDGFAAVYSTCMMALYVHYFM”, the protein production entry was “failed”.

On to “MNTHQNRYSVQSKVSALINCRLFQSFITTVIVLNAISIGLETYAFFKPYQKVFFIVDCLFLTIFVIELSLKLFVQKQHFFKNNWNVFDFVIVAGSLILYNTNFVSVLRIFRVLRVLRTITSVPSLRRIVNALFMAIPTISSVIILMSIIFYVYAVIGTMFFSAIAPEYFGNLQLSLLTLFQTFTLESWASGIFRPIFAESGWSWLYFVSFIVIATFIMINLIVGEIVNNAQKISQEIEDETGELKEDTKEIKELRAEVKELKALLQTYITQNEKKD”, for which the protein production result is on record as “failed”.

For the sequence “AQDLYQNLESKVAQKTREVEEQNLRLKTLYDMTSFLHQQRALDETCQGFIRRLMQLTGADAANARLVDPERGKLDQIAQQGLPAEMALNEECIPDDACHCGEAVQQPFAVLRHIGELEGEEIRHCRKAGFASIAVFHIRNQREDVGIFTLYFRQKRVLSMAEQMLIETLGQHLGVAIEN”, the protein production entry was “failed”.

As to “MWSYDKITDYLMNNLGEKRYKHSLGVMDTAVRLAGIYNEDTEKARIAGLVHDCAKKLPGEKIIEICTNEGYELGDEDIRNSYLLHGLAGRILAKKVIGIDDEDVLNAIEFHTTGRPNMSLLEKIIYIADYIEPGREFKGVDELRKAADEDLNKALLMSFDNTIKFVIDKGGFLHHNTIEARNYLISRKG”, the protein production entry is on record as “not failed”.

Take “MSSSNQDISIENTDLLTEISVAYYQDGATQEEISRKFAISRAKVGRMLKQARDEGIVEITVKYHPVFSAKIEQRLIERFGVKRALVALDQPNEEAQRLQVSGLVSNYLTSTLKNGMVVTVGQGRNVSSVAHHIGVITPRDCKFVCGIGGIHPRGGMYNADHICRQLAKKYGGTSETLYAPAYAENREQKMAFMQNATVKQTLDLARKADVALVGIGDMSENSYMVDLGWFTPDEVVQSRLKQGVVGDFAGYDFFDIHGNVANTVMSDRVIGLGIEEFRPIAEVIAIAAENSKPLALLGALRTGAIDVIATSVSNALTVLNLDEQMHGNAASES”: the protein production entry is on record as “failed”.

For “MFTETGLKSGRRTMRFARLLLLPLIVIGTLSGCAVNMADIHGFNVISLEQEKELGTKFAAEIEKQYPVYNDPEAQKYVDRLGRRLLTGAREVSFDYVFKVVKDDSVNAFAIPGGRLYVHTGLLKAAQSETEVAAVMAHEISHAVARHGTRQMTQQYGYSLVLSLVLGQNSNMLAQIAGELFGKAGMMSYSRDYENQADFLGVETMSKAGYNPQGMVSFFQKLDTMGQQNPSALTKFFSSHPLTSERIQRVQAEIAQLPPRTYPPVDNTDLQKIRARIKLEHHHHHH”, the protein production result was “failed”.

As to “MGKVILVTGVSRGIGKSIVDVLFSLDKDTVVYGVARSEAPLKKLKEKYGDRFFYVVGDITEDSVLKQLVNAAVKGHGKIDSLVANAGVLEPVQNVNEIDVNAWKKLYDINFFSIVSLVGIALPELKKTNGNVVFVSSDACNMYFSSWGAYGSSKAALNHFAMTLANEERQVKAIAVAPGIVDTDMQVNIRENVGPSSMSAEQLKMFRGLKENNQLLDSSVPATVYAKLALHGIPDGVNGQYLSYNDPALADFMP”, the protein production entry is recorded as “not failed”.

Take “MILLTKITLLLFSSIFFSYILYMKSHSFKKIEPRKCSLNLMIIGMAFIVVGEFLNFISSFVKYRVDIYVSFCFILGAILFVIFAIIFLNSVDNTLKCLYGCVYEDAMTGVYNRNGIKKIFKDTINKEDNFFVMSFDLDETKIINDNFGHLVGDEYIISAARAIKEVLGAKGVVGRTGGDEFAAIYISTDQEELKKVKTHINKRASEIFNGSNINISMGFSTYKKDGKNMKELFDLADKRMYQDKKNKRKADQRF”: the protein production entry is “failed”.

On to “MQMIKPPVQRHSHRRHRLLRSLGHQFSFGFFALCEKQRECKCDMATVMTTNLYNVARHSPHPIIFVCGSWSSLIESLIESAKEEEESMRRRS”, for which the protein production result is recorded as “failed”.

Take “VNSVAARVTELTGREVAAVAERGHSHRWHLYRVELADGTPLFVKALPDDAPALDGLFRAEALGLDWLGRSFGSPVPQVAGWDDRTLAMEWVDERPPTPEAAERFGHQLAAMHLAGAESFGATWDGYIGPLPMDNTPRSTWPEFYAEQRILPYLRRAADRGALTPGDVRLVEKVLDALDHLAGDPEPPARIHGDLWNGNVLWQDDGAVVIDPAAHGGHREADLAMLALFGLPYLDRVRDAYNEVAPLAEGWRARIPLHQLHPLLVHVCLFGAAYRTTLVDTARAALRA”: the protein production result is “not failed”.

As for “MKIAVMGYGTIGSGVVEVLEINKEKIAKRAGEPIEVKYVLDLREFPGTPIENKIVHDYKVIAEDPEIGIVVETMGGVEPAFTFVKAMLEAGKQVATSNKNLVAAKGAELIKVARDHGVNFQFEASVGGGIPIIRPLNKCLTADEIEEITGILNGTTNYMLTKMTEEGADFDEVLKDAQDKGYAEKDPTADIEGYDPCRKIAILTSLVAGQQVDFEDIHCEGITKITPEDIKYAKAMHRAIKLLASSRKVGDSYTCLVAPYMIDDTHPLSGVNGVFNGVFLRGNVLGDAMFYGSGAGKLPTASAVVADVVDMTKHQNTNIYIDWKPEKLTLVSYDDSVNSFFVRTDSPKSEVEAVFGHVDYIEDVVDGEYAFTTGDMTEKDFADKASKINVINRIRL”, the protein production entry was “failed”.
